Paper PMC3249508 (Journal of Molecular Biology, 2011)
Where two headings read alike, the source gives them in different places.

T1: DDX1 (1–428) (human, UniProt Q92499 1-428)
T1 sequence: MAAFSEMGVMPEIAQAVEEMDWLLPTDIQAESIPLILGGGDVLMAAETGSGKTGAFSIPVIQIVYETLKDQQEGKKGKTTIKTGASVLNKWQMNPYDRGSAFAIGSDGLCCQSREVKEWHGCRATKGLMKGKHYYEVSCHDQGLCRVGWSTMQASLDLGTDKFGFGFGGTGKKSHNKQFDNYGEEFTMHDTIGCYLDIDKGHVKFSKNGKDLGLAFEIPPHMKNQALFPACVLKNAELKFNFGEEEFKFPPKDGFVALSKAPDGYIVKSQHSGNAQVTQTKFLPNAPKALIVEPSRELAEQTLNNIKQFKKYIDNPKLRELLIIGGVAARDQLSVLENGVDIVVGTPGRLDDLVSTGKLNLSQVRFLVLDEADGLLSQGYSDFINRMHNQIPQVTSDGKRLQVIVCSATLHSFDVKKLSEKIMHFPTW

B1: recombinant full-length human DDX1 (enzyme)
chain: MAAFSEMGVMPEIAQAVEEMDWLLPTDIQAESIPLILGGGDVLMAAETGSGKTGAFSIPVIQIVYETLKDQQEGKKGKTTIKTGASVLNKWQMNPYDRGSAFAIGSDGLCCQSREVKEWHGCRATKGLMKGKHYYEVSCHDQGLCRVGWSTMQASLDLGTDKFGFGFGGTGKKSHNKQFDNYGEEFTMHDTIGCYLDIDKGHVKFSKNGKDLGLAFEIPPHMKNQALFPACVLKNAELKFNFGEEEFKFPPKDGFVALSKAPDGYIVKSQHSGNAQVTQTKFLPNAPKALIVEPSRELAEQTLNNIKQFKKYIDNPKLRELLIIGGVAARDQLSVLENGVDIVVGTPGRLDDLVSTGKLNLSQVRFLVLDEADGLLSQGYSDFINRMHNQIPQVTSDGKRLQVIVCSATLHSFDVKKLSEKIMHFPTWVDLKGEDSVPDTVHHVVVPVNPKTDRLWERLGKSHIRTDDVHAKDNTRPGANSPEMWSEAIKILKGEYAVRAIKEHKMDQAIIFCRTKIDCDNLEQYFIQQGGGPDKKGHQFSCVCLHGDRKPHERKQNLERFKKGDVRFLICTDVAARGIDIHGVPYVINVTLPDEKQNYVHRIGRVGRAERMGLAISLVATEKEKVWYHVCSSRGKGCYNTRLKEDGGCTIWYNEMQLLSEIEEHLNCTISQVEPDIKVPVDEFDGKVTYGQKRAAGGGSYKGHVDILAPTVQELAALEKEAQTSFLHLGYLPNQLFRTF
B2: Alexa-488-labeled HIV-1 Rev protein (natural protein)
chain: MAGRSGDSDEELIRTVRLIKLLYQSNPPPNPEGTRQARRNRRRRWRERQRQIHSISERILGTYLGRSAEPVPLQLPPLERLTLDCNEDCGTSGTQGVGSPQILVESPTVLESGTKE
modifications: Alexa-488 label (site not stated)

Experiments:
SEC = target: the molecule itself; experiment: SEC
[1] = target: B1; experiment: fluorescence polarisation
[2] = target: B1; experiment: fluorescence polarisation; remark: listed apart in the source
DDX1 (1–428) = target: T1, DDX1 (1–428); experiment: fluorescence polarisation
bovine serum albumin = bovine serum albumin (bovine, UniProt P02769 25-607); experiment: fluorescence polarisation
bovine serum albumin, sequence (P02769 25-607): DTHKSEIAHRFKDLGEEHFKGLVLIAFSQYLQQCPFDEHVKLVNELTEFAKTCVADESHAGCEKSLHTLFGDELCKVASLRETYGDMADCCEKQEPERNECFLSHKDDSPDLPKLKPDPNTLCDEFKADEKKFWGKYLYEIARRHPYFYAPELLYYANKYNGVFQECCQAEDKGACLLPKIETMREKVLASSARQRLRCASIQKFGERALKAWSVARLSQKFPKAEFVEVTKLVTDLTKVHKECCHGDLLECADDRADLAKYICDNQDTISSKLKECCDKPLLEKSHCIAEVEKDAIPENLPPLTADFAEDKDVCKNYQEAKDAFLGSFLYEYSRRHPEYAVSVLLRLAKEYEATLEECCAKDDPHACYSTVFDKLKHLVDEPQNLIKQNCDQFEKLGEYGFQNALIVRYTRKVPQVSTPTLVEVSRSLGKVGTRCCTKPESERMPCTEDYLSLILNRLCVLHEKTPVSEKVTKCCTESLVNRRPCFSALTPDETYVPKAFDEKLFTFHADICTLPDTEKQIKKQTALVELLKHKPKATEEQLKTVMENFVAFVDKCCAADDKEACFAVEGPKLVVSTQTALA

[3] = target: B1; experiment: fluorescence polarisation; remark: listed apart in the source

B1: binds (SEC).

Binder B2 has a Kd [1] of 53 nM, a Kd [2] of 14.7 nM and a Kd (DDX1 (1–428)) of 43 nM. For the same binder, the Kd (bovine serum albumin) was > 500 nM and the Kd [3] was 36 nM.
